In patent US20210363526A1, “Use of Non-Coding Nucleic Acid for Crop Improvement and Protection Against Microbes” (University of Kentucky Research Foundation, priority 2020, published 2021):
“Also recorded” adds a separate entry of the source.

Assays:
[1] = test system: Pseudomonas syringae DC 3000; assay: SAR (systemic acquired resistance) assay: local treatment, distal leaves challenged with virulent pathogen; type: in vivo, Arabidopsis; details: for SAR in ago1 plants: localized application to ago1 plants; for SAR in ago1 plants / SAR in ago7 plants / SAR in tas3a mutant plants: SA 500 μM, Pip 1000 μM, G3P 100 μM, DC3000 48 h later; for SAR in ago7 plants: localized application to ago7 plants; for SAR in tas3a mutant plants: localized application to tas3a plants, AzA 1000 μM
Description: Pathogen infection and collection of phloem exudate—Inoculations with Pseudomonas syringae DC 3000 were conducted as described before. The bacterial cultures were grown overnight in King's B medium containing rifampicin and/or kanamycin. For analysis of SAR, the primary leaves were inoculated with MgCl2 or the avr bacteria (10^7 cfu ml^−1) and, 48 h later, the systemic leaves were inoculated with vir bacteria (10^5 cfu m1^−1). Unless noted otherwise, samples from the systemic leaves were harvested at 3 dpi. Petiole exudates were collected in diethyl pyrocarbonate (DEPC) treated water as described earlier. […] PEX RNA was extracted using the TRIzol reagent, quantified using nanodrop and cDNA synthesized from PEX RNA was evaluated for contamination with leaf RNA by assaying for amplification of Rubisco genes. Each sample was run in triplicates and UBC9 expression levels were used as internal control for normalization. Cycle threshold values were calculated by SDS 2.3 software.
Chemical and RNA treatments—SA, G3P, AzA, and Pip treatments were carried out by using 500 μM, 100 μM, 1000 μM, and 1000 μM solutions, respectively. TAS3a RNA was suspended at a concentration of 0.0075-75 ng/μ1 of DEPC water and ˜40 μl was infiltrated per leaf. AzA was prepared in methanol and diluted in water. SA, G3P and Pip were prepared and diluted in water. All dilutions were freshly prepared prior to performing biological experiments.
Statistics and reproducibility—For pathogen assays, ˜16 plants/ genotype/treatment were analyzed in a single experiment. At least 3-4 technical replicates/genotype/treatment were plated. For metabolite quantification, ˜12 plants/genotype/treatment were analyzed in each experiment. Unless otherwise mentioned error bars indicate SD.

Pip = Pip quantification after localized TAS3a application; type: in vivo, Arabidopsis; details: Col-0, localized application
ROS = ROS (H2O2, DAB staining) after localized TAS3a application; type: in vivo, Arabidopsis; details: Col-0, localized application
Description: FIGS. 12A-D show graphs and images illustrating that exogenous application of TAS3a induces G3P but not SA, Pip, or ROS. (A) SA (left panel) and SAG (right panel) levels in Col-0 plants infiltrated with MgCl2, avrRpt2 or TAS3a transcripts. Leaf samples were collected 24 and 48 h post treatments. The error bars indicate SD (n=4). Asterisks denote a significant difference with respective mock-inoculated samples (t test, P<0.0001). (B) Pip levels in local tissues of Col-0 plants infiltrated with MgCl2 (mock), avrRpt2 or TAS3a transcripts. The leaves were sampled 48 h post treatments. Asterisks denote a significant difference with mock (t test, P<0.0001). The experiment was repeated two times with similar results. (C) H2O2 levels in local tissues of Col-0 plants after mock (MgCl2), pathogen (avrRpt2) or TAS3a treatments. The leaves were sampled 24 h post treatments and stained with DAB (3,3-diaminobenzidine). The experiment was repeated two times with similar results. (D) G3P levels in local tissues of water or 555 bp TAS3a transcript treated Col-0 plants. The leaves were sampled 24 h post treatments and the experiment was repeated two times with similar results. Asterisks denote a significant difference with respective mock-inoculated samples (t test, P<0.001).

isolated protoplasts = assay: Uptake assay of 32P-TAS3a555 into isolated protoplasts; type: cell-based, Arabidopsis; details: protoplasts incubated with 2 μM 32P-TAS3a555 for 1 h
Excerpt: (§1) FIGS. 9A-H show images and graphs illustrating that TAS3a RNA contains two overlapping open reading frames. (A) Nucleotide sequence of mature TAS3a RNA (SEQ ID NO: 1). Region shaded in purple and gray indicates overlapping open reading frames. Nucleotides shaded in yellow are miR390-AGO7 targeting sites on TAS3a transcript. Arrows indicate position of forward and reverse primers used for quantitative RT-PCR. Residues in red indicate alternate polyadenylation sites. (B) Real-time quantitative RT-PCR showing relative expression levels of ARF3 in Col-0 plants treated with buffer or Tas3a555 for 24 h. The error bars indicate SD (n=4). Results are representative of two independent experiments. Asterisks denote a significant difference (t test, P<0.0001). (C) Uptake assays showing percentage of ^32P-TAS3a555 transported into isolated protoplasts. Fresh protoplasts (10^6/ml) were incubated with 2 μM ^32P-TAS3a555 for 1 h, analyzed microscopically before and after four washes and quantified for the amount of radiolabel. The experiment was repeated three times with similar results. (D) RNA gel electrophoresis of in vitro synthesized TAS3a transcripts used in this study. (E) Typical morphological phenotypes of DC3000 inoculated distal leaves of Col-0 and tas3a plants. […]

SA = SA quantification after localized TAS3a application; type: in vivo, Arabidopsis; details: Col-0, localized application
G3P = G3P quantification after localized TAS3a application; type: in vivo, Arabidopsis; details: Col-0, localized application, 24 h
[2] = test system: auxin responsive factor (ARF) 3; assay: Real-time quantitative RT-PCR of ARF3 expression after TAS3a transcript application; type: in vivo, Arabidopsis; details: Col-0 plants, exogenous application, 24 h
Excerpt: as §1, with “(C) Uptake assays showing percentage of ^32P-TAS3a555 transported into isolated protoplasts.” left out, “radiolabel.” for “radiolabel. The experiment was repeated three times with similar results. (D) RNA gel electrophoresis of in vitro synthesized TAS3a transcripts used in this study. (E) Typical morphological phenotypes of DC3000 inoculated distal leaves of Col-0 and tas3a plants.”
RNA extraction, quantitative real-time PCR, and in vitro transcription—Small-scale extraction of RNA from two or three leaves (per sample) was performed with the TRIzol reagent (Invitrogen, CA), following the manufacturer's instructions. RNA quality and concentration were determined by gel electrophoresis and determination of A260. […] Quantitative RT-PCR was carried out as described before. […] Cycle threshold values were calculated by SDS 2.3 software.

What does the source list for `O=C(O)c1ccccc1O` [SA, salicylic acid]?
SAR in ago1 plants [1]: unable to restore SAR; SAR in ago7 plants [1]: unable to restore SAR; SAR in tas3a mutant plants [1]: did not restore SAR

Which “SAR in ago1 plants” value [1] does the source give for `O=C(O)C1CCCCN1` (stereo not drawn) [Pip, pipecolic acid] here?
Its value is “unable to restore SAR”.

And the “SAR in ago7 plants” value [1]?
Its value is “unable to restore SAR”.

And the “SAR in tas3a mutant plants” value [1]?
Its value is “did not restore SAR”.

Which “SAR in tas3a mutant plants” value [1] does the source give for `O=C(O)CCCCCCCC(=O)O` [AzA, azelaic acid] here?
Its value is “did not restore SAR”.

For `O=P(O)(O)OCC(O)CO` (stereo not drawn) [G3P, glycerol-3-phosphate], which “SAR in ago1 plants” value [1] is on record?
The value was “unable to restore SAR”.

And the “SAR in ago7 plants” value [1]?
The value was “unable to restore SAR”.

What about the “SAR in tas3a mutant plants” value [1] of the same molecule?
Its value is “did not restore SAR”.

B1: TAS3a transcript: exogenously applied in vitro transcribed TAS3a RNA, length not stated at the place (figure legends: 555 nt) (nucleic acid, listed as Arabidopsis thaliana)
chain: AUCCCACCGUUUCUUAAGACUCUCUCUCUUUCUGUUUUCUAUUUCUCUCUCUCUCAAAUGAAAGAGAGAGAAGAGCUCCCAUGGAUGAAAUUAGCGAGACCGAAGUUUCUCCAAGGCAUUAAGGAAAACAUAACCUCCGUGAUGCAUAGAGAUUAUUGGAUCCGCUGUGCUGAGACAUUGAGUUUUUCUUCGGCAUUCCAGUUUCAAUGAUAAAGCGGUGUUAUCCUAUCUGAGCUUUUAGUCGGAUUUUUUCUUUUCAAUUAUUGUGUUUUAUCUAGAUGAUGCAUUUCAUUAUUCUCUUUUUCUUGACCUUGUAAGGCCUUUUCUUGACCUUGUAAGACCCCAUCUCUUUCUAAACGUUUUAUUAUUUUCUCGUUUUACAGAUUCUAUUCUAUCUCUUCUCAAUAUAGAAUAGAUAUCUAUCUCUACCUCUAAUUCGUUCGAGUCAUUUUCUCCUACCUUGUCUAUCCCUCCUGAGCUAAUCUCCACAUAUAUCUUUUGUUUGUUAUUGAUGUAUGGUUGACAUAAAUUCAAUAAAGAAGUUGACGUUUUUCU
Which Pip accumulation (Pip) does the source give for B1 here?
The Pip accumulation was “did not induce”.

And the Pip accumulation (Pip; listed as TAS3a)?
Its Pip accumulation is “not”.

And the ROS accumulation (ROS)?
The ROS accumulation was “did not induce”.

What about the ROS accumulation (ROS; listed as TAS3a) of the same molecule?
Its ROS accumulation is “not”.

What about the “uptake in isolated protoplasts” value (isolated protoplasts) of the same molecule?
The value was “confirmed by uptake”.

What about the SA accumulation (SA) of the same molecule?
Its SA accumulation is “did not induce”.

And the SA accumulation (SA; listed as TAS3a)?
The SA accumulation was “not”.

What about the G3P levels (G3P) of the same molecule?
The G3P levels was “did increase”.

And the G3P levels (G3P; listed as TAS3a)?
Its G3P levels is “induces”.

What about the “SAR induction in wild-type plants” value ([1]; localized application to wild-type Col-0, virulent DC3000 inoculated on distal leaves 48 h post-local treatment, transcripts 0.039 nmol/ml, Tasi-ARFs 1 μM (figure legends)) of the same molecule?
The value was “confer robust SAR; also recorded: able to induce SAR”.

What about the “expression of TAS3a target gene ARF3” value [2] of the same molecule?
The value was “suppressed”.
